{"source": "paper PMC8809517", "about": "“Cofactor-independent RNA editing by a synthetic S-type PPR protein”", "assay_in_all_cases": "high-throughput RNA pulldown from lysate on Ni-NTA beads; HRP: 50 mM Tris pH 8, 150 mM NaCl, 1 mM beta-mercaptoethanol, 50 ug/ml BSA, 3 ug/ml yeast RNA, 0.5% heparin; ITC and FP: Tris pH 8, 200 mM KCl, 5% glycerol; MST: 50 mM Tris pH 8, 200 mM NaCl, 1 mM DTT, BSA, heparin, 0.05% Tween 20", "conditions_in_all_cases": "tags: N-terminal His-eGFP", "key": {"[1]": {"target": "T1, GFP-9S library array, motif 4 ND N98I;D124E (synthetic construct, N98I;D124E)", "T1 chain": "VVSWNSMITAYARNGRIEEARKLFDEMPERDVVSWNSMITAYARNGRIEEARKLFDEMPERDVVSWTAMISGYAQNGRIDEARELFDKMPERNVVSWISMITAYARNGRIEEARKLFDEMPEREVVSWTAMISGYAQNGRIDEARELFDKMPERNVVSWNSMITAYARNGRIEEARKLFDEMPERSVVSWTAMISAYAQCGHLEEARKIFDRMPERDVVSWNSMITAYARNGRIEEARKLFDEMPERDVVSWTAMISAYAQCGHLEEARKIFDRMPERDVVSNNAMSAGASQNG"}, "[2]": {"target": "T2, GFP-9S library array, motif 4 ND N98I;D124H (synthetic construct, N98I;D124H)", "T2 chain": "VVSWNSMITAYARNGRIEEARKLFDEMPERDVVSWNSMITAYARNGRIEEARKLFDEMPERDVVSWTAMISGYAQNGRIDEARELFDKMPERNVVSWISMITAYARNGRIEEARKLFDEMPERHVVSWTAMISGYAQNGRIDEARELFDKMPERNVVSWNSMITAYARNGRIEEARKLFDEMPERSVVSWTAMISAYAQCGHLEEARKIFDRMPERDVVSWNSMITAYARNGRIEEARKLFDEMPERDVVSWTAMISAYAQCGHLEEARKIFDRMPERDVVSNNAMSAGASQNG"}, "[3]": {"target": "T3, GFP-9S library array, motif 4 ND N98D;D124H (synthetic construct, N98D;D124H)", "T3 chain": "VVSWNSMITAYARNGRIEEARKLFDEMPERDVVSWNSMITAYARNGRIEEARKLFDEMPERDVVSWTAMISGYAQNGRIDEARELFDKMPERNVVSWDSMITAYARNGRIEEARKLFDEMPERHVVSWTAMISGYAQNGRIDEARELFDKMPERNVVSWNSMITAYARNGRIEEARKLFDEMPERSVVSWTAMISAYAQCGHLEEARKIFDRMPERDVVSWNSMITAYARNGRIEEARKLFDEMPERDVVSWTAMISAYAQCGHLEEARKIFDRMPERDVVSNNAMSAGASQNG"}, "[4]": {"target": "T4, GFP-9S library array, motif 4 ND N98H;D124L (synthetic construct, N98H;D124L)", "T4 chain": "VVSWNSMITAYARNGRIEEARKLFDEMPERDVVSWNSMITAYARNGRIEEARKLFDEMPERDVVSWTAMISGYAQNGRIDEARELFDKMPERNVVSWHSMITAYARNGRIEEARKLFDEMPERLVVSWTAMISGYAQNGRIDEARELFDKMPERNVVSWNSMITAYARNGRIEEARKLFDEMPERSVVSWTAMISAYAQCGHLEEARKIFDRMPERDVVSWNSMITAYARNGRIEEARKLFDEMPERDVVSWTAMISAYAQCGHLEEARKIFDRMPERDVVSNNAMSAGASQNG"}, "[5]": {"target": "T5, GFP-9S library array, motif 4 ND N98Y;D124Q (synthetic construct, N98Y;D124Q)", "T5 chain": "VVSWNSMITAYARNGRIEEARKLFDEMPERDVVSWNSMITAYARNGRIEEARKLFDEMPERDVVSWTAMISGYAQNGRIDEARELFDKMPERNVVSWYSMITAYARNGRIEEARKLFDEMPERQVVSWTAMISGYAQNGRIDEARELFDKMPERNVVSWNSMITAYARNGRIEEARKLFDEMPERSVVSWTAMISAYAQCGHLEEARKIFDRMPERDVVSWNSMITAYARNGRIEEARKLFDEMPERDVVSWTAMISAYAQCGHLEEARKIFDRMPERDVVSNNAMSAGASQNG"}}, "data": [{"binder": "AUUAAACGUGA (ssRNA)", "note": "[IR-rpoA-A]", "values": [{"measurement": "Kd", "setting": "[1]; label: 5' IRDye 800CW", "value": 48.6, "unit": "nM"}, {"measurement": "Kd", "setting": "[2]; label: 5' IRDye 800CW", "value": 167, "unit": "nM"}, {"measurement": "Kd", "setting": "[3]; label: 5' IRDye 800CW", "value": 311, "unit": "nM"}, {"measurement": "Kd", "setting": "[4]; label: 5' IRDye 800CW", "value": 82.1, "unit": "nM"}, {"measurement": "Kd", "setting": "[5]; label: 5' IRDye 800CW", "value": 162, "unit": "nM"}]}, {"binder": "AUUAUACGUGA (ssRNA)", "note": "[IR-rpoA-U]", "values": [{"measurement": "Kd", "setting": "[1]; label: 5' IRDye 800CW", "value": 43.1, "unit": "nM"}, {"measurement": "Kd", "setting": "[2]; label: 5' IRDye 800CW", "value": 243, "unit": "nM"}, {"measurement": "Kd", "setting": "[3]; label: 5' IRDye 800CW", "value": 182, "unit": "nM"}, {"measurement": "Kd", "setting": "[4]; label: 5' IRDye 800CW", "value": 32.7, "unit": "nM"}, {"measurement": "Kd", "setting": "[5]; label: 5' IRDye 800CW", "value": 103, "unit": "nM"}]}, {"binder": "AUUAGACGUGA (ssRNA)", "note": "[Cy5-rpoA-G]", "values": [{"measurement": "Kd", "setting": "[1]; label: 5' Cy5", "value": 78.6, "unit": "nM"}, {"measurement": "Kd", "setting": "[2]; label: 5' Cy5", "value": 107, "unit": "nM"}, {"measurement": "Kd", "setting": "[3]; label: 5' Cy5", "value": 120, "unit": "nM"}, {"measurement": "Kd", "setting": "[4]; label: 5' Cy5", "value": 55.6, "unit": "nM"}, {"measurement": "Kd", "setting": "[5]; label: 5' Cy5", "value": 49.8, "unit": "nM"}]}, {"binder": "AUUACACGUGA (ssRNA)", "note": "[Cy5-rpoA]", "values": [{"measurement": "Kd", "setting": "[1]; label: 5' Cy5", "value": 97.2, "unit": "nM"}, {"measurement": "Kd", "setting": "[2]; label: 5' Cy5", "value": 147, "unit": "nM"}, {"measurement": "Kd", "setting": "[3]; label: 5' Cy5", "value": 123, "unit": "nM"}, {"measurement": "Kd", "setting": "[4]; label: 5' Cy5", "value": 60.1, "unit": "nM"}, {"measurement": "Kd", "setting": "[5]; label: 5' Cy5", "value": 39.5, "unit": "nM"}]}]}
